Reference: US20160031996A1 (CSL, published 2016)
Where a chain is given by its changes, count along the chain named.

Tests used:
Assay in all cases: Western blot, whole cell extracts of 293F cells
[1] = biological target: T1, human IL-3Rα V53A, full length (human, UniProt P26951 19-378)
T1 construct: expressed in 293F cells; Western blot of whole cell extracts; also called V53, cell surface alanine
T1 sequence: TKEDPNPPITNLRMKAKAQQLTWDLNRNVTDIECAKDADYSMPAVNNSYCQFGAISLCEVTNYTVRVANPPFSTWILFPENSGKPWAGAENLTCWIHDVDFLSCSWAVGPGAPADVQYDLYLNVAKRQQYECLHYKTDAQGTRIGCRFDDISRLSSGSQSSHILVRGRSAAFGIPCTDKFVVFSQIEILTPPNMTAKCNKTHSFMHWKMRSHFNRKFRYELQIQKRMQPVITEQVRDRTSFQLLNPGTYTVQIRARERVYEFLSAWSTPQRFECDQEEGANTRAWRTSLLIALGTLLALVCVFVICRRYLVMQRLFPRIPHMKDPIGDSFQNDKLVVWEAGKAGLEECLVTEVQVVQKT

[2] = biological target: T2, human IL-3Rα W93A, full length (human, UniProt P26951 19-378)
T2 construct: expressed in 293F cells; Western blot of whole cell extracts; also called W93, cell surface alanine
T2 sequence: T1 sequence with A35V, W75A

[3] = biological target: T3, human IL-3Rα R84A, full length (human, UniProt P26951 19-378)
T3 construct: expressed in 293F cells; Western blot of whole cell extracts; also called R84, cell surface alanine
T3 sequence: T1 sequence with A35V, R66A

[4] = biological target: T4, human IL-3Rα Y58A, full length (human, UniProt P26951 19-378)
T4 construct: expressed in 293F cells; Western blot of whole cell extracts; also called Y58, cell surface alanine
T4 sequence: T1 sequence with A35V, Y40A

[5] = biological target: T5, human IL-3Rα P61A, full length (human, UniProt P26951 19-378)
T5 construct: expressed in 293F cells; Western blot of whole cell extracts; also called P61, cell surface alanine
T5 sequence: T1 sequence with A35V, P43A

[6] = biological target: T6, human IL-3Rα E51A, full length (human, UniProt P26951 19-378)
T6 construct: expressed in 293F cells; Western blot of whole cell extracts; also called E51, cell surface alanine
T6 sequence: T1 sequence with E33A, A35V

binding result [1]: no binding
binding result [2]: no binding
binding result [3]: no binding
binding result [4]: no binding
binding result [5]: no binding
binding result [6]: no binding
B1: monoclonal antibody 7G3 (antibody, V domains shown)
VH: EVQLQQSGPELVKPGASVKMSCKASGYTFTDYYMKWVKQSHGKSLEWIGDIIPSNGATFYNQKFKGKATLTVDRSSSTAYMHLNSLTSEDSAVYYCTRSHLLRASWFAYWGQGTLVTVSA
VL: DFVMTQSPSSLTVTAGEKVTMSCKSSQSLLNSGNQKNYLTWYLQKPGQPPKLLIYWASTRESGVPDRFTGSGSGTDFTLTISSVQAEDLAVYYCQNDYSYPYTFGGGTKLEIKR
notes: mouse monoclonal antibody (hybridoma ATCC HB-12009)
